{"source": "the nanobody polyreactivity screen of Harvey et al. (2022)", "data": [{"assay": "yeast display, Sf9 membrane polyspecificity reagent, FACS + sequencing; frameworks hold sequencing errors", "summary_of_the_method": "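Synthetic nanobody libraries on Saccharomyces cerevisiae BJ5465 were galactose-induced for 36–48 hours, stained 1 hour at 4 °C with 10% biotinylated, detergent-solubilized Sf9 membrane reagent and enriched on streptavidin microbeads. FACS then separated cells into low and high (top ~1%) gates by anti-HA (expression) and streptavidin (reagent binding) fluorescence. Genes were colony-PCR amplified, MiSeq 2 × 250 sequenced and CDR-length filtered. A clone's polyreactivity label is that of its gate of origin.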", "values": [{"sequence": "QVQLVESGGGLVQAGGSLRLSCAASGCIFFQYAMGWYIQAPGKERELVAAISGSGVTTYYADSVKGRFTISRDNAKNTVYLQMNSLKPEDTAVYYCNAALRWKYDWGQGTQVTVSS", "polyreactivity (PSR sort gate)": "low polyreactivity"}, {"sequence": "QVQLVESGGGLVQAGGSLRLSCAASGCIFRYYAKGWYRQPPGKERELVPVISSNGARTSYADSVKGRFTISRDNATYTVYLQMNSLKPEDTAVYYCNARAWSRFPPVGHDDWGQGTQVTVSS", "polyreactivity (PSR sort gate)": "high polyreactivity"}, {"sequence": "QVQLVESGGGLVQAGGSLRLSCAASGCIFVRYAMGWYRQAPGKERELVAAISRSGGSTSYADSVKGRFTISRDNAKNTVYLQMNSLKPEDTAVYYCAVVRGGRGYPGYDYWGQGTQVTVSS", "polyreactivity (PSR sort gate)": "low polyreactivity"}, {"sequence": "QVQLVESGGGLVQAGGSLRLSCAASGCTFPLYAMGWYRPAPGKERELVAAITSGGGNTYYADSVKGRFTISRDNAKNTVYLQMNSLKPEDTAVYYCAAVGGYKSYYSYEYDYWGQGTQVTVSS", "polyreactivity (PSR sort gate)": "low polyreactivity"}, {"sequence": "QVQLVESGGGLVQAGGSLRLSCAASGCTFQTYAMGWYRQAPGKERELVAGITAGGSTNYADSVKGRFSISRDNAKNTVYLQMNSLKPEDTAVYYCAVRQISQTSDHRLQYDYWGQGTQVNVSS", "polyreactivity (PSR sort gate)": "low polyreactivity"}, {"sequence": "QVQLVESGGGLVQAGGSLRLSCAASGFAFSYYAMGWSRQAPGKEREFVASIDWSGGSTYYADSVKGRFTISRDNAKNTVYLQMNSLKPEDTAVYYCAAELDYFPGYDYWGQGTQVTVSS", "polyreactivity (PSR sort gate)": "low polyreactivity"}, {"sequence": "QVQLVESGGGLVQAGGSLRLSCAASGFAFSYYAMGWYIPAPGKEREFVASIDWSGGSTYYADSVKGRFTISRDNAKNTVYLQMNSLKPEDTAVYYCAAELDYFPGYDYWGQGTQVTVSS", "polyreactivity (PSR sort gate)": "low polyreactivity"}, {"sequence": "QVQLVESGGGLVQAGGSLRLSCAASGFAFSYYAMGWYRQAPGKEREFVASIDWSGGSTYYADSVKGRFTISRDIAKTTVYLQMNRLKPEDTAVYYCAAELDYFPGYDYWGQGTQVTVSS", "polyreactivity (PSR sort gate)": "low polyreactivity"}, {"sequence": "QVQLVESGGGLVQAGGSLRLSCAASGFICAQNAMGWYRQAPGKERELVADISGRGGRTYYADSVKGRFTISRDNAKNTVYLQMNSLKPEDTAVYYCAKDTYLQIYQYGYWGQGTQVTVSS", "polyreactivity (PSR sort gate)": "high polyreactivity"}, {"sequence": "QVQLVESGGGLVQAGGSLRLSCAASGFIDAYTMGWYRQAPWKERELVAAITWSGGRTYYADSVKGRFTISRDNAKNTVYLQMNSLKPEDTAVYYCAKDVTPYSPDDDYWGQGTQVTVSS", "polyreactivity (PSR sort gate)": "low polyreactivity"}, {"sequence": "QVQLVESGGGLVQAGGSLRLSCAASGFIDVSYAMGWYRQAPGKERELVAAIDRIGGITYYADSVKGRFTISRDNAKNTVYLQMNSLKPEDTAVYYCAAAARYATVRVGREYYWGQGTQVTVSS", "polyreactivity (PSR sort gate)": "low polyreactivity"}, {"sequence": "QVQLVESGGGLVQAGGSLRLSCAASGFIFAAYAMGWYRQAPGKERELVAAISYSGDRTYYADSVKGRFTISRDNAKNTVYLQMNSLKPEDTAVYYCDADARAYTYDYWGQGTQVTVSS", "polyreactivity (PSR sort gate)": "high polyreactivity"}, {"sequence": "QVQLVESGGGLVQAGGSLRLSCAASGFIFADYAMGWYRQAPGKERELVAAISASGGITYYADSVKGRFTISRDNAKNTVYLQMNSLKPEDTAVYYCNAVTGKWNWRKYDYWGQGTQVTVSS", "polyreactivity (PSR sort gate)": "high polyreactivity"}, {"sequence": "QVQLVESGGGLVQAGGSLRLSCAASGFIFAFYAMGWYRQAPGKERELVAAISLSGGSTYYADSVKGRFTISRDNAKITVYLQMNSLKPDDTAVYYCAASRYKFYYWGQGTQVTVSS", "polyreactivity (PSR sort gate)": "high polyreactivity"}, {"sequence": "QVQLVESGGGLVQAGGSLRLSCAASGFIFAGTAMGWYRQAPGKEWELVAAITRSGTNTYYADSVKGRFTISRDHAKNTVFLQMNSLKPEDTAVYYCNATVRYRYPYGYWGQGTQVTVSS", "polyreactivity (PSR sort gate)": "high polyreactivity"}, {"sequence": "QVQLVESGGGLVQAGGSLRLSCAASGFIFAGYAMGWYRQAPGKERELVAGITRNGGSTYYADSVKGRFTISRDNAKITVYFQMYSLNPEDTAVYYCAATRYSFGPRRVDYWRQGTQVTVSS", "polyreactivity (PSR sort gate)": "high polyreactivity"}]}]}
